# Assays:
# [1] = test system: his-OV71 (Orf virus (Taiping strain)); assay: competition; details: EMSA: 20 mM HEPES, 10 mM EDTA, 1 M KCl, 1 mM DTT, 80 ug/mL BSA, 50% glycerol (so in the source), on ice 15 min, 0.05 pmol RNA. Pulldown: 100 mM K acetate
# OV71 (ORFV071; his-OV71) = molecular target: T1, OV71 (ORFV071; his-OV71) (Orf virus strain SA00, UniProt Q6TVP9); assay: competition in decapping of radiolabeled capped RNA, TLC; assay type: biochemical; details: 206-nt cap-labeled RNA substrate; 4 pmol enzyme; 2 mM MgCl2, 0.5 mM MnCl2, pH 7.5, 37 °C; added product as competitor
# T1 construct: His-tagged, pET24a (NdeI/XhoI), E. coli BL21(DE3), Talon cobalt resin; approx. 25 kDa
Molecule,IC50 [1],relative decapping ratio (OV71 (ORFV071; his-OV71))
206 nt uncapped RNA competitor,40 pmol,–
C[n+]1cn([C@@H]2O[C@H](COP(=O)(O)OP(=O)(O)O)[C@@H](O)[C@H]2O)c2nc(N)[nH]c(=O)c21 [m^7GDP],–,"decapping product m^7GDP modestly inhibited the decapping (Fig. 3D and E), indicating weak affinity"

# Reference: PMC12751338, “Biochemical and functional characterization of orf virus decapping protein OV71” (Virology Journal, 2025)
